From patent JP2017222678A (dated 2017)

B1: TP-3G1 (Fab, V domains shown)
VH: QVQLQQSGPGLVKPSQTLSLTCAISGDSVSSNSGGWGWIRQSPGRGLEWLGLIYYRSKWYNAYAVSVKSRITINPDTSKNQFSLQLNSVTPEDTAVYYCARYLGSNFYVYSDVWGQGTLVTVSS
VL: DIQMTQSPSSLSASVGDRVTITCRASQGISSYLHWYQQKPGKAPKLLIYGASTLQSGVPSRFSGSGSGTDFTLTISSLQPEDFATYYCQQQNGYPFTFGQGTKVEIKR
notes: HuCAL Gold human Fab from E. coli TG1
B2: TP-3G3 (Fab, V domains shown)
VH: QVQLVESGGGLVQPGGSLRLSCAASGFTFSSYSMSWVRQAPGKGLEWVSSISSSSSNTYYGDSVKGRFTISRDNSKNTLYLQMNSLRAEDTAVYYCARMHYKGMDIWGQGTLVTVSS
VL: DIQMTQSPSSLSASVGDRVTITCRASQNIHSHLNWYQQKPGKAPKLLIYDASSLQSGVPSRFSGSGSGTDFTLTISSLQPEDFAVYYCQQYYDYPLTFGQGTKVEIKR
notes: as for B1
B3: TP-3H2 (Fab, V domains shown)
VH: QVQLVESGGGLVQPGGSLRLSCAASGFTFNSYYMSWVRQAPGKGLEWVSNISSSGSNTNYADSVKGRFTISRDNSKNTLYLQMNSLRAEDTAVYYCARVHYGFDFWGQGTLVTVSS
VL: DIELTQPPSVSVAPGQTARISCSGDKLGKYYAYWYQQKPGQAPVLVIYGDSKRPSGIPERFSGSNSGNTATLTISGTQAEDEADYYCSSAAFGSTVFGGGTKLTVLG
notes: as for B1
B4: TP-4A7 (Fab, V domains shown)
VH: QVQLVESGGGLVQPGGSLRLSCAASGFTFRNYAMNWVRQAPGKGLEWVSVISGSSSYTYYADSVKGRFTISRDNSKNTLYLQMNSLRAEDTAVYYCARADLPYMVFDYWGQGTLVTVSS
VL: DIELTQPPSVSVAPGQTARISCSGDALGSKFAHWYQQKPGQAPVLVIYDDSERPSGIPERFSGSNSGNTATLTISGTQAEDEADYYCQAYDSGLLYVFGGGTKLTVLG
notes: as for B1
B5: TP-2A8 (Fab, V domains shown)
VH: QVQLVESGGGLVQPGGSLRLSCAASGFTFRSYGMSWVRQAPGKGLEWVSSIRGSSSSTYYADSVKGRFTISRDNSKNTLYLQMNSLRAEDTAVYYCARKYRYWFDYWGQGTLVTVSS
VL: DIELTQPPSVSVAPGQTARISCSGDNLRNYYAHWYQQKPGQAPVVVIYYDNNRPSGIPERFSGSNSGNTATLTISGTQAEDEADYYCQSWDDGVPVFGGGTKLTVLG
notes: HuCAL Gold human Fab from E. coli TG1; also called Fab-2A8; TP-2A8-Fab
B6: TP-4B7 (Fab, V domains shown)
VH: QVQLQQSGPGLVKPSQTLSLTCAISGDSVSSNSAAWSWIRQSPGRGLEWLGIIYKRSKWYNDYAVSVKSRITINPDTSKNQFSLQLNSVTPEDTAVYYCARWHSDKHWGFDYWGQGTLVTVSS
VL: DIVMTQSPLSLPVTPGEPASISCRSSQSLVFSDGNTYLNWYLQKPGQSPQLLIYKGSNRASGVPDRFSGSGSGTDFTLKISRVEAEDVGVYYCQQYDSYPLTFGQGTKVEIKR
notes: as for B1
B7: TP-2A10 (Fab, V domains shown)
VH: QVQLVESGGGLVQPGGSLRLSCAASGFTFTSYSMNWVRQAPGKGLEWVSAISYTGSNTHYADSVKGRFTISRDNSKNTLYLQMNSLRAEDTAVYYCARAFLGYKESYFDIWGQGTLVTVSS
VL: DIELTQPPSVSVAPGQTARISCSGDKLGKKYVHWYQQKPGQAPVLVIYGDDKRPSGIPERFSGSNSGNTATLTISGTQAEDEADYYCQAWGSISRFVFGGGTKLTVLG
notes: as for B1
B8: TP-2B1 (Fab, V domains shown)
VH: QVQLVESGGGLVQPGGSLRLSCAASGFTFSSYSMSWVRQASGKGLEWVSSIKGSGSNTYYADSVKGRFTISRDNSKNTLYLQMNSLRAEDTAVYYCARNGGLIDVWGQGTLVTVSS
VL: DIELTQPPSVSVAPGQTARISCSGDNLGNKYAHWYQQKPGQAPVLVIYYDNKRPSGIPERFSGSNSGNTATLTISGTQAEDEADYYCQSWTPGSNTMVFGGGTRLTVLG
notes: as for B1

Each binder was assayed against T1, ヒトTFPI (human tissue factor pathway inhibitor; American Diagnostica) (human, UniProt P10646 29-304, limits assumed) (assay: ELISA, Fab in bacterial lysate on coated human TFPI).
T1 construct: Coated on plates (ELISA) or amine-coupled to a CM5 chip (Biacore); also called h-TFPI; hTFPI
T1 sequence (looked up): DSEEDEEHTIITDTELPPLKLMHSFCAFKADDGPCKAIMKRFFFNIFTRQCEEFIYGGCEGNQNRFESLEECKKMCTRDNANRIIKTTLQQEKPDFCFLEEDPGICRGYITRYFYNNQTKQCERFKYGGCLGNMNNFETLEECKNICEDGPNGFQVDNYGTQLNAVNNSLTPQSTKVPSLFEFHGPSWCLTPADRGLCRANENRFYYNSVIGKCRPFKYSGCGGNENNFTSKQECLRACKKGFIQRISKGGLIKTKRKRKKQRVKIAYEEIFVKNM
B1: binds.
B2: binds.
B3: binds.
B4: binds.
B5: binds.
B6: binds.
B7: binds.
B8: binds.
